According to patent US10689651B2, “Method of inhibiting macrophage activation using an inhibitor of PARP9” (THE BRIGHAM AND WOMEN'S HOSPITAL, INC., priority 2013, dated 2020):
“Also recorded” adds a separate entry of the source.

Target: T1, PARP14 (Homo sapiens, UniProt Q460N5)
T1 construct: purchased BPS Bioscience Inc
Test: Ribosylation assay: PARP14-mediated ADP-ribosylation of STAT1α
Assay type: biochemical
Details: recombinant proteins; for PARP14-induced mono ADP-ribosylation at Glu657 and Glu705 of STAT1α: LC-MS/MS, MS1 AUC quantification
Description: The high resolution/accuracy LTQ-Orbitrap Elite (Thermo Scientific) analyzed TMT peptide samples and the Q Exactive (Thermo Scientific) analyzed in vitro ribosylated peptides. Both mass spectrometers are fronted with a Nanospray FLEX ion source, and coupled to an Easy-nLC1000 HPLC pump (Thermo Scientific). The peptides were subjected to a dual column set-up: an Acclaim PepMap RSLC C18 trap column, 75 um×20 cm (50 um×15 cm on the Q Exactive); and an Acclaim PepMap RSLC C18 analytical column 75 um×250 mm (Thermo Scientific). For TMT analysis the analytical gradient was run at 250 nl/min from 10 to 30% Solvent B (acetonitrile/0.1% formic acid) for 90 minutes, followed by five minutes of 95% Solvent B. Solvent A was 0.1% formic acid. For ribosylated peptides the gradient was run at 250 nl/min from 5 to 28% Solvent B for 30 minutes, followed by five minutes of 95% Solvent B. All reagents were HPLC-grade. […] Unmodified forms were calculated by subtracting the mass of the ADP-ribose (541. 06 Da) from the observed precursor. Modified and unmodified m/z values and corresponding retention time windows were submitted to an inclusion list and analyzed in using the data-independent acquisition module of the Q Exactive (R=35 K).
Recombinant human PARP14 and PARP9 (BPS Bioscience Inc.) proteins, and BSA (Sigma-Aldrich) were incubated with recombinant human STAT1α (OriGene Technologies, Inc.) or STAT6 protein (Sino Biological Inc.) at a final concentration of 5 ng/μl in the presence of 100 μM β-Nicotinamide adenine dinucleotide hydrate (NAD; Sigma-Aldrich) or 6-biotin-17-NAD (Trevigen, Inc.) in 50 mM Tris-HCl buffer (pH 7.4) for 1 hour at room temperature. Ribosylation of STAT1α and STAT6 was detected by LC-MS/MS after trypsin digestion or Western blotting using Streptavidin-HRP (Abcam) after SDS-PAGE. Quantification of the relative abundances of ribosylated STAT1α peptides was completed by calculating the area under the curve (AUC) of the extracted ion chromatograms (XICs) of the monoisotopic peaks of the modified versus unmodified peptides. […]

T1 sequence (Q460N5 whole entry): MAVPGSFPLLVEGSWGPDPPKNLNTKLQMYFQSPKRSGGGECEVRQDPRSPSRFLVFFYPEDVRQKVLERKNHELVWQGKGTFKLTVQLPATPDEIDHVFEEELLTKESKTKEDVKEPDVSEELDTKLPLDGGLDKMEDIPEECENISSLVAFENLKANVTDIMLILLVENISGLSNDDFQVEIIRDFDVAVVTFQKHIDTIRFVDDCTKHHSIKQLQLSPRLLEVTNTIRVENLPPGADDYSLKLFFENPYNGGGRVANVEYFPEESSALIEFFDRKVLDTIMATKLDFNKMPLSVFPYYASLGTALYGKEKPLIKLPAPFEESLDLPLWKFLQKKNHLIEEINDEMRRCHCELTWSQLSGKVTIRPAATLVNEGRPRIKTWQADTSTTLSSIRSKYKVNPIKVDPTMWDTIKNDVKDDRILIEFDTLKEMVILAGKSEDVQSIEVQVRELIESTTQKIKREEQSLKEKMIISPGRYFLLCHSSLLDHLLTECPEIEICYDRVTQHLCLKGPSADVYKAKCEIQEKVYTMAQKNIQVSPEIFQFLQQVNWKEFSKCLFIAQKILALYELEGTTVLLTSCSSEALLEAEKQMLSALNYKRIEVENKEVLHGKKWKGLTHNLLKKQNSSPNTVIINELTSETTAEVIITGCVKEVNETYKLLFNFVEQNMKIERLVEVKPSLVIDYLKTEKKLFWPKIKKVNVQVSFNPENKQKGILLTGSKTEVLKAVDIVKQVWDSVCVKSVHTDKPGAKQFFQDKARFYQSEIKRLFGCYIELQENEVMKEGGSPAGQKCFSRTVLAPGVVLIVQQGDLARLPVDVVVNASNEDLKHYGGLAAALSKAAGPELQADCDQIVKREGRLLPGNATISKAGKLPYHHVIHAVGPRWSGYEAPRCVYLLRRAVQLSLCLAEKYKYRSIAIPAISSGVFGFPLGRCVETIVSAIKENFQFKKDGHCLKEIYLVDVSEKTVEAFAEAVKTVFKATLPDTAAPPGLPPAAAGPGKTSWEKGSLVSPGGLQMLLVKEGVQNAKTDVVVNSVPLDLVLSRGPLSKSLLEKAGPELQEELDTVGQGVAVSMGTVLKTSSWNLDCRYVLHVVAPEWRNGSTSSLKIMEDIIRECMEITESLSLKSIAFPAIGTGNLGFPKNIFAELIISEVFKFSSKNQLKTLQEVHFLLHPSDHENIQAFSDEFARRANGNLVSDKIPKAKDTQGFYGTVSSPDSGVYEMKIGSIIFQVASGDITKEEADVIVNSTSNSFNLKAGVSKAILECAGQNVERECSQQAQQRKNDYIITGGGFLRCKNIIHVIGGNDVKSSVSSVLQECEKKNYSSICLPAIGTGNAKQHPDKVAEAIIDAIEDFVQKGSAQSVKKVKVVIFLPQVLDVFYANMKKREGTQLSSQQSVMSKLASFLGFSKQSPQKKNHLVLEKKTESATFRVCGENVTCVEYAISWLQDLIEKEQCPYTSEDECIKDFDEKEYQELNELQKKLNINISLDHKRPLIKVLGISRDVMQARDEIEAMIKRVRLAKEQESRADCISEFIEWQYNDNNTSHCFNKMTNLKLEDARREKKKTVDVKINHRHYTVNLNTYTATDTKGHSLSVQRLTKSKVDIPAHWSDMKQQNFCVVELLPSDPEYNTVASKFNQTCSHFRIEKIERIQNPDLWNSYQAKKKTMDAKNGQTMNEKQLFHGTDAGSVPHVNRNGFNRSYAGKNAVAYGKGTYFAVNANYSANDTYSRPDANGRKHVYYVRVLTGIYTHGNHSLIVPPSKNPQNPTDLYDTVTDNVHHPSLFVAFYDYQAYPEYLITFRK

- PARP14-induced mono ADP-ribosylation at Glu657 and Glu705 of STAT1α: inhibited
- PARP14-induced mono ADP-ribosylation at Glu657 and Glu705 of STAT1α (listed as PARP9): inhibition
- ADP-ribosylation of STAT1α by PARP14 (protein ribosylation assay (Western blot)): suppressed; also recorded: inhibits
Substance: recombinant PARP9: Recombinant human PARP9 protein (BPS Bioscience Inc.) added to the PARP14 ribosylation assay
